In US20070224620A1 (PROMEGA, published 2007):

B1: HaloTag (HT) alone (enzyme, Rhodococcus rhodochrous, UniProt P0A3G2 1-293, looked up)
chain: MSEIGTGFPFDPHYVEVLGERMHYVDVGPRDGTPVLFLHGNPTSSYLWRNIIPHVAPSHRCIAPDLIGMGKSDKPDLDYFFDDHVRYLDAFIEALGLEEVVLVIHDWGSALGFHWAKRNPERVKGIACMEFIRPIPTWDEWPEFARETFQAFRTADVGRELIIDQNAFIEGALPMGVVRPLTEVEMDHYREPFLKPVDREPLWRFPNELPIAGEPANIVALVEAYMNWLHQSPVPKLLFWGTPGVLIPPAEAARLAESLPNCKTVDIGPGLFLLQEDNPDLIGSEIARWLPAL
notes: Control bait without a fused partner, covalently captured on HaloLink resin; also called mutant dehalogenase protein

Assays:
[1] = biological target: T1, GST-cFos (UniProt P01100 1-380, fluorescently labeled using Lys-tRNA with FluoroTect Green (labelled lysines, positions not stated)); assay: HaloLink resin pull-down, lane 3: HT alone as bait, no crosslinker; release of fluorescent prey read on gel
T1 construct: N-terminal GST fusion expressed in rabbit reticulocyte lysate; also called Prey; not shown: GST, N-terminal fusion partner encoded by Flexi vector pFN2A (Promega)
T1 sequence (P01100 whole entry, the tested form may be a part): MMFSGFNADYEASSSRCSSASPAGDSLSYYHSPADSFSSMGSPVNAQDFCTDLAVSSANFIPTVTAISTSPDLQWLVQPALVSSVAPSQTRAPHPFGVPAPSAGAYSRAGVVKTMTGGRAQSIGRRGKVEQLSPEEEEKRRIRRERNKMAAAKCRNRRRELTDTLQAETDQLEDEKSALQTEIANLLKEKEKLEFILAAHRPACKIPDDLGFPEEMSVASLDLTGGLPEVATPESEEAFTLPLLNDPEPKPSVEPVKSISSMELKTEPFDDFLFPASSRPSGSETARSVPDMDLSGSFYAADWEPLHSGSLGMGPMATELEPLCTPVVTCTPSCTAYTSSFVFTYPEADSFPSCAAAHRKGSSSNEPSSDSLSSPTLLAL

[2] = biological target: B1; assay: HaloLink resin pull-down, lane 1: HT alone as bait, 2 uM rapamycin, no DTTSP; release of fluorescent prey read on gel; text: showed no background binding of Prey
Experimental: Remove final wash solution and add protein-protein crosslinked material to resin. Incubate at 22° C. for one hour. Wash resin 5×1 mL with 1×TBS+0.05% IGEPAL as described above. Remove final wash. At this point, the crosslinked protein-protein complex has been covalently captured and purified on the resin and can be resuspended in the desired buffer. In samples treated with the crosslinker DTTSP, resupend resin in 1×SDS Loading buffer containing 5 mM β-Me and boil at 95° C. for 5 minutes to reverse the protein-protein crosslinks. Analyse samples using SDS gel electrophoresis.

binding result [1] | binding result [2] | Binder
no binding | – | B1
– | no binding | GST-Frb (other, fluorescently labeled using Lys-tRNA with FluoroTect Green (labelled lysines, positions not stated), domain: Frb domain of Frap; N-terminal GST fusion expressed in rabbit reticulocyte lysate; linker not described; also called Prey; Frb domain of Frap; not shown: GST, N-terminal fusion partner encoded by Flexi vector pFN2A (Promega)) ILWHEMWHEGLEEASRLYFGERNVKGMFEVLEPLHAMMERGPQTLKETSFNQAYGRDLMEAQEWCRKYMKSGNVKDLTQAWDLYYHVFRRISK
